In test [1] the target is T1, human PD1 on HEK293F cells (human, UniProt Q15116 25-288).
T1 construct: whole, on cells
The experiment in a line: flow cytometry, transfected HEK293F cells [Cont.]. How it is done: (§1) Antibody selectivity was next examined. Human CTLA4, PD1, LAG3, Tim3, B7H3, CD95, TNFR1, OX40, CD40, PD-L1, BLTA, VISTA, PDL2, ICOS and B7H4 were transiently overexpressed on the surface of HEK293F cells. Transfected cells were washed in pre-chilled 1×PBSA buffer (1.76 mM KH2PO4, 10.14 mM Na2HPO4.12H2O, 2.68 mM KCl, 136.89 mM NaCl and 1% BSA), then incubated with 100 nM test antibodies for 1 hour on ice. Cells were washed once with staining buffer, and Alexa Fluor® 647 conjugated mouse anti-human FC antibodies were added and incubated for 30 minutes on ice, protected from light. Samples were washed once with staining buffer prior to analysis by flow cytometry.

In test [2] the target is T2, human LAG3 on HEK293F cells (human, UniProt P18627 23-525).
T2 construct: whole, on cells
T2 sequence (looked up): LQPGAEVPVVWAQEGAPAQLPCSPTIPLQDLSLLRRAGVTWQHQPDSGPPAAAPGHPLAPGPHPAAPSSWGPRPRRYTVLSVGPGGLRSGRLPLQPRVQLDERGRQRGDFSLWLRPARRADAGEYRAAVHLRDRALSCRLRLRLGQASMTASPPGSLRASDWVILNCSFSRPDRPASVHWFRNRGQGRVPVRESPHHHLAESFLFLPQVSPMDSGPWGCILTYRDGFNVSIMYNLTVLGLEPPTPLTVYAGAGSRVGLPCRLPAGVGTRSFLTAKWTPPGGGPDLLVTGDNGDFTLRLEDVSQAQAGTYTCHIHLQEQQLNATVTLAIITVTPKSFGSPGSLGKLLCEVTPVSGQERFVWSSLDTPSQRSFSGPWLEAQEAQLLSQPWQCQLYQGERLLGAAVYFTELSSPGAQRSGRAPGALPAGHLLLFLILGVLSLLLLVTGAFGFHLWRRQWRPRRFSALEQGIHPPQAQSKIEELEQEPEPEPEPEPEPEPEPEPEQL
Nature of the test: flow cytometry, transfected HEK293F cells [Cont.]. The procedure: as §1

For test [3], the target named is T3, human TNFR1 on HEK293F cells (human, UniProt P19438 30-455).
T3 construct: whole, on cells; also called CD120a
T3 sequence (looked up): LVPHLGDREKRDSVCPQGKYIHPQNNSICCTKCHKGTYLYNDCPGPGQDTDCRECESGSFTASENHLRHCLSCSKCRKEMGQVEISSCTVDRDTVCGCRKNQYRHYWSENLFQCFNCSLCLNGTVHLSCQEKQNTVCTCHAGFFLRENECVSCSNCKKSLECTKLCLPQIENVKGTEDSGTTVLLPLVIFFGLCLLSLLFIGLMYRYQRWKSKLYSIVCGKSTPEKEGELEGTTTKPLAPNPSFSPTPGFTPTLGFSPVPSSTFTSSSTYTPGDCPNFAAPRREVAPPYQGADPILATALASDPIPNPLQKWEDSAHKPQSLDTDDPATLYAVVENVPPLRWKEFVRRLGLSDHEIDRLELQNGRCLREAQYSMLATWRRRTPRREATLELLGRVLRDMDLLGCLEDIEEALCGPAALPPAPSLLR
The experiment in a line: flow cytometry, transfected HEK293F cells. The procedure:
as §1

Test [4] has as its target T4, full-length human CTLA4 expressed on cells (human, UniProt P16410 36-223).
T4 construct: whole, on cells; also called HEK293F/hCTLA-4 cells; HEK293F/hCTLA4 cells
T4 sequence (looked up): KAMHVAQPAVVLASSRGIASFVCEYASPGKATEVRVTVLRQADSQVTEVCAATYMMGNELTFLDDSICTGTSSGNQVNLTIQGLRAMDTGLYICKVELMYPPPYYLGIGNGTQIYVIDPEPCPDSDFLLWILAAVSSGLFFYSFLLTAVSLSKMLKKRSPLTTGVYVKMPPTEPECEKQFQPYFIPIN
The experiment in a line: flow cytometry, transfected HEK293F cells, antibody concentration not given. How it is done: (§2) The affinities of the antibodies were also assessed against human and mouse CTLA4 transiently expressed on the surface of HEK293F cells (FIG. 2). Briefly, HEK293F cells were transfected with a plasmid expressing full-length human, monkey or mouse CTLA4 from a bicistronic IRES vector also encoding EGFP, and EGFP expression was used to identify the transfected cells. After 48 hours, the mammalian cell suspension (2×10⁵/well) was transferred to an Eppendorf tube, centrifuged, the supernatant was discarded, the cells were resuspended with 1 mL PBSA (to a density is 4×10⁶ cells/mL), and added to a 96 well plate. […] The cells were then washed once prior to analysis by flow cytometry (Beckman® CytoFlex).

In test [5] the target is T5, full-length mouse CTLA4 expressed on HEK293F cells (mouse, UniProt P09793 36-223).
T5 construct: whole, on cells
The description is as above. How it is done: as §2

The target of test [6] is T6, human CD95 on HEK293F cells (human, UniProt P25445 26-335).
T6 construct: whole, on cells
T6 sequence (looked up): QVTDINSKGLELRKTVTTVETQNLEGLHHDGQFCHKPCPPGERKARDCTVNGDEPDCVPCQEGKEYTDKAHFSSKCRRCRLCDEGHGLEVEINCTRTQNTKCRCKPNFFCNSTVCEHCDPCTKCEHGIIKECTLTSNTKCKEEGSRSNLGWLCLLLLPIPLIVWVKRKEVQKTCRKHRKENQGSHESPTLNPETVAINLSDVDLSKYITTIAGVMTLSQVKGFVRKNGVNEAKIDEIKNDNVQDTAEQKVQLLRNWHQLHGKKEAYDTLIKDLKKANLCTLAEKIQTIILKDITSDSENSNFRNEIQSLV
The experiment in a line: flow cytometry, transfected HEK293F cells [Cont.]. The procedure:
as §1

Test [7] deals with T3, human TNFR1 on HEK293F cells. Nature of the test: flow cytometry, transfected HEK293F cells [Cont.]. How it is done:
as §1

In test [8] the target is T7, human OX40 on HEK293F cells (human, UniProt P43489 29-277).
T7 construct: whole, on cells
T7 sequence (looked up): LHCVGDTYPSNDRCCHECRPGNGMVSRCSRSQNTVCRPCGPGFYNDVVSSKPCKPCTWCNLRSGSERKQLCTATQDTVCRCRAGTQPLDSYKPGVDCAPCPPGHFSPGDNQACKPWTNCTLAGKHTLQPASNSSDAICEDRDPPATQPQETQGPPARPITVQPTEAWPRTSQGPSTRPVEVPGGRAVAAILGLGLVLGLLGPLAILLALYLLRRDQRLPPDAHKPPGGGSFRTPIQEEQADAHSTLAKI
Nature of the test: flow cytometry, transfected HEK293F cells [Cont.]. The procedure:
as §1

Changes are numbered by the printed parent chain.

T1 sequence (Q15116 25-288): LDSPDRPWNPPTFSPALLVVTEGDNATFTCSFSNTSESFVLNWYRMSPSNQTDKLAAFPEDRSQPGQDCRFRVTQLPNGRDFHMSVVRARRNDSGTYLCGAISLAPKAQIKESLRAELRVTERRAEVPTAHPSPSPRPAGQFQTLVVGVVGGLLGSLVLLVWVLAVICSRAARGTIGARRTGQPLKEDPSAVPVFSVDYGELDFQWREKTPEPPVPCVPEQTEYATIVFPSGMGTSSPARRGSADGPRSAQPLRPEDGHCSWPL

B1: TY21687 (antibody, V domains shown)
VH: EVQLVESGGGLVQPGGSLRLSCAASGFTFSGYAIHWVRQAPGKGLEWIGIISPSGGGTKYAQKFQGRVTISRDNSKNTLYLQLNSLRAEDTAVYYCARHPFAYWGQGTLVTVSS
VL: DIQLTQSPSSLSASVGDRVTITCRASQSVDFYGISFLDWYQQKPGKAPKLLIYDASNRATGIPSRFSGSGSGTDFTLTISSLQPEDFATYYCQQYVSSPPEYTFGQGTKVEIK
notes: human IgG1 (hIgG1) from Fab hit B15700
Turning to B1, the binding result in test [1] and in test [2] was “no binding (tested: 100 nM)” in each case.

B2: TY21585 (antibody, V domains shown)
VH: EVQLVESGGGLVQPGGSLRLSCAASGFTFSDYAIHWVRQAPGKGLEWIGIISPSSGSTNYAQKFQGRVTISRDNSKNTLYLQLNSLRAEDTAVYYCARDIHSGSSGYYYGFDVWGQGTLVTVSS
VL: B1 VL with Q27E, Y32F, D38A, Q94H, V96T, E101V
notes: human IgG1 (hIgG1) from Fab hit B15709
In the case of B2, the binding result in test [3] is recorded as “no binding (tested: 100 nM)”. The “% of cells in upper right quadrant (Q2)” value in test [4] stood at 25.7%; in test [5] it was 30.8%.

B3: TY21591 (antibody, V domains shown)
VH: EVQLVESGGGLVQPGGSLRLSCAASGFSLSTGGVAVSWIRQAPGKGLEWIGEIYHSGSTYYSPSLKSRVTISRDNSKNTLYLQLNSLRAEDTAVYYCARRIATATYFDYWGQGTLVTVSS
VL: DIQLTQSPSSLSASVGDRVTITCRASQTVFSRYLAWYQQKPGKAPKLLIYDASNRATGIPSRFSGSGSGTDFTLTISSLQPEDFATYYCQQSYYWPPWTFGQGTKVEIK
notes: human IgG1 (hIgG1) from Fab hit B15756
With B3, the binding result in test [6], in test [7] and in test [8] was “no binding (tested: 100 nM)” each time.
